Assay [1] has as its target human ferroportin (wild type) (human) (UniProt Q9NP59). The assay can be described thus: fluorescence polarisation.
For assay [2] the target is unchanged. In words: fluorescence polarisation. This is another data set of the same source.
The target is the same in assay [3]. The assay can be described thus: fluorescence polarisation. This is another data set of the same source.
The target in assay [4] is human ferroportin (wild type) (human, UniProt Q9NP59). In words: SEC.
Chain of human ferroportin (wild type) (Q9NP59 whole entry): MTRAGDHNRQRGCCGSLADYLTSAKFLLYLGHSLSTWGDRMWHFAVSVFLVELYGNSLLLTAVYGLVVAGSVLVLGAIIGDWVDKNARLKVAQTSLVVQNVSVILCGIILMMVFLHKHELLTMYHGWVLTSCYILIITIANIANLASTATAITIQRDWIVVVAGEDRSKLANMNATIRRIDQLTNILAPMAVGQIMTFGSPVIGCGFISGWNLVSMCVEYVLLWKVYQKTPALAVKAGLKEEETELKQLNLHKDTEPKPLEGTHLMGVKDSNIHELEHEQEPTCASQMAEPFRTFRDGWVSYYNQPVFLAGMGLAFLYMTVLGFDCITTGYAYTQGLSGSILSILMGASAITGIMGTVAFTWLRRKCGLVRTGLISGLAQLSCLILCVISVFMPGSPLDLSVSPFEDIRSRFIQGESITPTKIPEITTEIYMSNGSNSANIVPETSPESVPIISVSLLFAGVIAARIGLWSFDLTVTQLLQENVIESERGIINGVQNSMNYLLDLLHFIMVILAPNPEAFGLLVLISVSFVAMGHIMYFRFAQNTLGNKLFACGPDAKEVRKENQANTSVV
In the next assay the target is T1, Rhodamine green-hepcidin (Homo sapiens, not fully specified; rhodamine green at position 17).
T1 chain: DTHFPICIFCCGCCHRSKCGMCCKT
The assay can be described thus: fluorescence polarisation.

Like-named read-outs stand apart in the source and are kept apart here.

Chain of human ferroportin (wild type) (human) (Q9NP59 whole entry): as the sequence (Q9NP59 whole entry) above

In the case of Rhodamine green-hepcidin (peptide), the Kd amounted to 210 nM in assay [1], 2.5 nM in assay [2] and 7.7 nM in assay [3].

B1: Fab45D8 (Fab, V domains shown)
VH: EVQLQESGPGLAKPSQTLSLTCSVTGSSITSDYWNWIRKFPGNKLEYMGYISYSGSTYYNPSLKSQISITRDTSKNHYYLQLNSVTTEDTATYYCARQGLRNWYFDVWGTGTTVTVSS
VL: DIVLTQSPASLPVSLGQRATISCRASKSVSASAYSYMHWYQQKPGQPPKPLIYLASNLESGVPARFSGSGSGTDFTLNIHPVEEEDAATYYCQHNRELPYTFGGGTKLEIK
As for B1, the binding result in assay [4] is listed as “binds”; with Rhodamine green-hepcidin, “no binding”.
